Where two headings read alike, the source gives them in different places.
Assays:
[1] = biological target: T1, human CD71 on cells (SKBR3; SW620-rLuc-KRAS) (human, UniProt P02786 1-760); assay: cell-based or functional assay
[2] = biological target: T2, apical domain of CD71 (Screen 3: 'cynomolgus apical domain of human CD71') (cynomolgus (as 'cynomolgus apical …)); assay: primary ELISA screen, RLU on apical domain over RLU on HSA
T2 construct: domain: apical domain; Species is told ambiguously

[3] = biological target: T3, human CD71 extracellular domain (human, UniProt P02786 89-760); assay: primary ELISA screen, RLU on human CD71-ECD over RLU on HSA
T3 construct: also called hCD71; human CD71-ECD
T3 sequence (P02786 89-760): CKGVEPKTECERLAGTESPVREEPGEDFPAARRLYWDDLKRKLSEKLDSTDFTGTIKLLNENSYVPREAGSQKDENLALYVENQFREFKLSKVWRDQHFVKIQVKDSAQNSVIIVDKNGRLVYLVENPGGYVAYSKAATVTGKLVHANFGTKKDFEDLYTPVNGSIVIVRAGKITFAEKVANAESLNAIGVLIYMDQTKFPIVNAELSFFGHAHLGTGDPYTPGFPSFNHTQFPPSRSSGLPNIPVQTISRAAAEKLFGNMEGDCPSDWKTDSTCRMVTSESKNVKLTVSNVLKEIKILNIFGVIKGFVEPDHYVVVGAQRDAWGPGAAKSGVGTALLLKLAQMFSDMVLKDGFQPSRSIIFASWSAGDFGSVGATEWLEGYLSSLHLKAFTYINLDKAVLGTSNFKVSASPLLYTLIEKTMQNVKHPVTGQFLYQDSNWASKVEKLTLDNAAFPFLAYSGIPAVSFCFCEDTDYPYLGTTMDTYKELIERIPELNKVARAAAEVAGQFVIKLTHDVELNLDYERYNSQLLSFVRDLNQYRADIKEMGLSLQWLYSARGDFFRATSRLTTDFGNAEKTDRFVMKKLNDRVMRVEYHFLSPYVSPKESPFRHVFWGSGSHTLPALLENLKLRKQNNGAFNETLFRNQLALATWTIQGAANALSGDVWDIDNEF

[4] = biological target: T2, apical domain of CD71 (Screen 3: …); assay: primary ELISA screen, apical domain of CD71
[5] = biological target: T3, human CD71 extracellular domain; assay: primary ELISA screen, human CD71-ECD
[6] = biological target: T4, human CD71 extracellular domain (CD71-ECD) (human, UniProt P02786 89-760); assay: capture ELISA, 20 nM antigen on Neutravidin plate, FN3 titrated 250 to 0.3 nM
T4 construct: It was captured on a Neutravidin plate; also called hCD71; transferrin receptor 1 ECD
T4 sequence (P02786 89-760): as above
Procedure: (§1) Select CD71-binding FN3 domains identified in Example 4 above were chosen to determine their binding to both human and cynomolgus monkey CD71 extracellular domain (CD71-ECD). Capture ELISA using CD71 binding to FN3 domains was performed, with the FN3 domains being titrated from 250 nM to 0.3 nM. 20 nM of antigen was incubated on a Neutravidin® plate for 1 hour at room temperature. The FN3 domains were incubated for 16 hours at room temperature.

[7] = biological target: T5, cynomolgus monkey CD71 extracellular domain (CD71-ECD) (cynomolgus monkey, UniProt H9EXL1 89-760 (rhesus entry)); assay: as above
T5 construct: extracellular domain; It was captured on a Neutravidin plate; also called cynomolgus CD71-ECD
T5 sequence (chain, as listed by the source): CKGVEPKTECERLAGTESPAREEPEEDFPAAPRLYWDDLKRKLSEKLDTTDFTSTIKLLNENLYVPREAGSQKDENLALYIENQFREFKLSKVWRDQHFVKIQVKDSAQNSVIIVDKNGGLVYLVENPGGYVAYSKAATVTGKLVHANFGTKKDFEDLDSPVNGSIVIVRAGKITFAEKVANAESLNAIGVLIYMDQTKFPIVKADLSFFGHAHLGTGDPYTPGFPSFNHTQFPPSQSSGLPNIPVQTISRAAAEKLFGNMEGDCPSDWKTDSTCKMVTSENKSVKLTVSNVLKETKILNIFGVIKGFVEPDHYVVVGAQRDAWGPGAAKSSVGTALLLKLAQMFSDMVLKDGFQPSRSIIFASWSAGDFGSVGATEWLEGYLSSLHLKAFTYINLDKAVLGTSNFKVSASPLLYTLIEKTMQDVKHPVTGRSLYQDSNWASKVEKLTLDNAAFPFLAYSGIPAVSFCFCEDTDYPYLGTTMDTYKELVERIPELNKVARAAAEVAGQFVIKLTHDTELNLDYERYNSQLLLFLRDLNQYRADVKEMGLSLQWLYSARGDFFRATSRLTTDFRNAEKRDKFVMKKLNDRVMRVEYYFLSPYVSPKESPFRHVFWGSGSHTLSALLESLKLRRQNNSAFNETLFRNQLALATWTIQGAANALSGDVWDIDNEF
Procedure: as §1

[8] = biological target: T1, human CD71 on cells (SKBR3; …); assay: cell-based or functional assay; remark: listed apart in the source

T1 sequence (P02786 whole entry, the tested form may be a part): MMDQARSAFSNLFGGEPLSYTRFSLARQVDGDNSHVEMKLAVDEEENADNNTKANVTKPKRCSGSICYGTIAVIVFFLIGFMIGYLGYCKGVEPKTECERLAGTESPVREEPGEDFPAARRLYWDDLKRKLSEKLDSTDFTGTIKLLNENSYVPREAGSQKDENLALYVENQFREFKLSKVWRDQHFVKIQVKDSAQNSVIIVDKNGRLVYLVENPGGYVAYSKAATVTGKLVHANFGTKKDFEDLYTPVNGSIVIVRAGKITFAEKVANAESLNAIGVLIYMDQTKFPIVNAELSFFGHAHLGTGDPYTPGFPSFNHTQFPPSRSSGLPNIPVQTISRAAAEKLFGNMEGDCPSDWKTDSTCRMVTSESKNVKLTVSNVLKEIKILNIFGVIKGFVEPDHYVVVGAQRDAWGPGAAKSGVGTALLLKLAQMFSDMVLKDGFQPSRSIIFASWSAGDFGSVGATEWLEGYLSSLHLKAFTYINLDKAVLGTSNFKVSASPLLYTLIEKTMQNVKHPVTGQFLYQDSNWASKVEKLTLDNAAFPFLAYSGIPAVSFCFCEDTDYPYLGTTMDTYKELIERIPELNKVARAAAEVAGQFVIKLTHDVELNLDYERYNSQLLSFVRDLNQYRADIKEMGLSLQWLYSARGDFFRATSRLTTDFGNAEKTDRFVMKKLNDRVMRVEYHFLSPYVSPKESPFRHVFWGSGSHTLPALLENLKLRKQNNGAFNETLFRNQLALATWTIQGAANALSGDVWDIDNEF

Binder | CTG EC50 (CellTiter-Glo luminescent assay, SKBR3 cells, 72 h) [1] [nM] | Apical domain:HSA [2] [ratio] | hCD71:HSA [3] [ratio] | RLU [4] [RLU] | RLU [5] [RLU] | EC50 [6] [nM] | EC50 [7] [nM] | CTG EC50 (CellTiter-Glo luminescent assay, SKBR3 cells, 72 h) [8] [nM]
CD71-binding FN3 domain of SEQ ID NO: 343 (designed binder) MSLPAPKNLVVSRVTEDSARLSWTAPDAAFDSFFIGYLEPQPPGEAIALWVPGSERSYDLTGLKPGTEYNVTIQGVKGGFPSEPLVATFTT | 0.21 | – | – | – | – | – | – | –
CD71-binding FN3 domain of SEQ ID NO: 335 (designed binder, not shown: C-terminal poly-histidine tag added to each FN3 domain) MSLPAPKNLVVSRVTEDSARLSWTAPDAAFDSFFIGYLEPQPPGEAIDLYVPGSERSYDLTGLKPGTEYNVTIQGVKGGFPSLPLVATFTT | – | 103 | 93 | 5.9e+06 | 5.34e+06 | – | – | –
CD71-binding FN3 domain of SEQ ID NO: 343 (designed binder, not shown: C-terminal poly-histidine tag added to each FN3 domain) MSLPAPKNLVVSRVTEDSARLSWTAPDAAFDSFFIGYLEPQPPGEAIALWVPGSERSYDLTGLKPGTEYNVTIQGVKGGFPSEPLVATFTT | – | 178 | 172 | 5.42e+06 | 5.25e+06 | – | – | –
CD71-binding FN3 domain of SEQ ID NO: 337 (designed binder, not shown: C-terminal poly-histidine tag added to each FN3 domain) MSLPAPKNLVVSRVTEDSARLSWTAPDAAFDSFFIGYLEPQPPGEAIHLYVPGSERSYDLTGLKPGTEYNVTIQGVKGGFPSIPLIASFTT | – | 385 | 307 | 6.62e+06 | 5.28e+06 | – | – | –
CD71-binding FN3 domain of SEQ ID NO: 342 (designed binder, not shown: C-terminal poly-histidine tag added to each FN3 domain) MSLPAPKNLVVSRVTEDSARLSWTAPDAAFDSFFIGYLEPQPPGEAIVLTVPGSERSYDLTGLKPGTEYNVTIQGVKGGFPSEPLIANFTT | – | 13 | 10 | 5.41e+06 | 4.44e+06 | – | – | –
CD71-binding FN3 domain of SEQ ID NO: 341 (designed binder, not shown: C-terminal poly-histidine tag added to each FN3 domain) MSLPAPKNLVVSRVTEDSARLSWTAPDAAFDSFFIGYLEPQPPGEAIELYVPGSERSYDLTGLKPGTEYNVTIQGVKGGFPSLPLVAIFTT | – | 92 | 92 | 5.31e+06 | 5.35e+06 | – | – | –
CD71-binding FN3 domain of SEQ ID NO: 336 (designed binder, not shown: C-terminal poly-histidine tag added to each FN3 domain) MSLPAPKNLVVSRVTEDSARLSWTAPDAAFDSFNIMYHEHYDNGEAIVLTVPGSERSYDLTGLKPGTEYSVVINGVKGGPHSAPLSAIFTT | – | 256 | 68 | 4.31e+06 | 1.15e+06 | – | – | –
CD71-binding FN3 domain of SEQ ID NO: 340 (designed binder, not shown: C-terminal poly-histidine tag added to each FN3 domain) MSLPAPKNLVVSRVTEDSSRLSWTAPDAAFDSFEIGYFENLYLGEAIVLTVPGSERSYDLTGLKPGTEYWVQIGGVKGGNWSAPLSAIFTT | – | 180 | 106 | 5.1e+06 | 3e+06 | – | – | –
CD71-binding FN3 domain of SEQ ID NO: 344 (designed binder, not shown: C-terminal poly-histidine tag added to each FN3 domain) MSLPAPKNLFVSRVTEDSARLSWTAPDAAFDSFEIGYWENAYKGEAIVLTVPGSERSYDLTGLKPGTEYWVQIGGVKGGNWSAPLSAIFTT | – | 92 | 36 | 3.4e+06 | 1.33e+06 | – | – | –
CD71-binding FN3 domain of SEQ ID NO: 339 (designed binder, not shown: C-terminal poly-histidine tag added to each FN3 domain) MSLPAPKNLVVSRVTEDSARLSWTAPDAAFDSFEIGYWEMSYYGEAIVLTVPGSERSYDLTGLKPGTEYGVSIGGVKGGRWSLPLSAIFTT | – | 690 | 303 | 4.86e+06 | 2.14e+06 | – | – | –
CD71-binding FN3 domain of SEQ ID NO: 338 (designed binder, not shown: C-terminal poly-histidine tag added to each FN3 domain) MSLPAPKNLVVSRVTEDSARLSWTAPDAAFDSFEIGYFENLYLGEAIVLTVPGSERSYDLTGLKPGTEYCVYICGVKGGRDSMPLSAIFTT | – | 125 | 57 | 5.02e+06 | 2.29e+06 | – | – | –
CD71-binding FN3 domain of SEQ ID NO: 334 (designed binder, not shown: C-terminal poly-histidine tag added to each FN3 domain) MSLPAPKNLVVSRVTEDSARLSWTAPDAAFDSFEIAYQELSLWGEAIVLTVPGSERSYDLTGLKPGTEYWVQIGGVKGGIWSSPLVASFTT | – | 378 | 188 | 5.45e+06 | 2.7e+06 | – | – | –
CD71-binding FN3 domain of SEQ ID NO: 472 (designed binder, Tencon-based FN3 domain) MLPAPKNLVVSRVTEDSARLSWTAPDAAFDSFFIGYLEPQPPGEAIELYVPGSERSYDLTGLKPGTEYNVTIQGVKGGFPSLPLVATFTT | – | – | – | – | – | 0.4 | 0.7 | 0.3

Now from value to binder:

CTG EC50 (CellTiter-Glo luminescent assay, SKBR3 cells, 72 h) [1] [nM] | Apical domain:HSA [2] [ratio] | hCD71:HSA [3] [ratio] | RLU [4] [RLU] | RLU [5] [RLU] | EC50 [6] [nM] | EC50 [7] [nM] | CTG EC50 (CellTiter-Glo luminescent assay, SKBR3 cells, 72 h) [8] [nM] | Binder
– | 195 | 108 | 4.59e+06 | 2.55e+06 | – | – | – | CD71-binding FN3 domain of SEQ ID NO: 345 (designed binder, not shown: C-terminal poly-histidine tag added to each FN3 domain) MSLPAPKNLVVSRVTEDSAHLSWTAPDAAFDSFEIGYFENDYFGEAIVLTVPGSERSYDLTGLKPGTEYVVFIGGVKGGKWSAPLSAIFTT
– | – | – | – | – | 0.91 | 1.6 | 0.4 | CD71-binding FN3 domain of SEQ ID NO: 373 (designed binder, Tencon-based FN3 domain) MLPAPKNLVVSRVTEDSARLSWTAPDAAFDSFFIGYLEPQPPGEAISLFVPGSERSYDLTGLKPGTEYNVTIQGVKGGFPSDPLVASFTT
– | – | – | – | – | 3.9 | 10.6 | 3 | CD71-binding FN3 domain of SEQ ID NO: 496 (designed binder, Tencon-based FN3 domain) MLPAPKNLVVSRVTEDSARLSWTAPDAAFDSFFIGYLEPQPPGEAIILWVPGSERSYDLTGLKPGTEYNVTIQGVKGGFPSVPLIAQFTT
– | – | – | – | – | 2.1 | 17.7 | 2.7 | CD71-binding FN3 domain of SEQ ID NO: 476 (designed binder, Tencon-based FN3 domain) MLPAPKNLVVSRVTEDSARLSWTAPDAAFDSFFIGYLEPQPPGEAIHLQVPGSERSYDLTGLKPGTEYNVTIQGVKGGFPSIPLIAVFTT
– | – | – | – | – | 3.2 | 5 | 71.5 | CD71-binding FN3 domain of SEQ ID NO: 447 (designed binder, Tencon-based FN3 domain) MLPAPKNLVVSRVTEDSARLSWTAPDAAFDSFFIGYLEPQPPGEAIYLYVPGSERSYDLTGLKPGTEYNVTIQGVKGGFPSYPLTAQFTT
– | – | – | – | – | 2.8 | 4.3 | 2.9 | CD71-binding FN3 domain of SEQ ID NO: 400 (designed binder, Tencon-based FN3 domain) MLPAPKNLVVSRVTEDSARLSWTAPDAAFDSFFIGYLEPQPPGEAIHLFVPGSERSYDLTGLKPGTEYNVTIQGVKGGFPSGPLHATFTT
– | – | – | – | – | 2.5 | 24.9 | 1.2 | CD71-binding FN3 domain of SEQ ID NO: 465 (designed binder, Tencon-based FN3 domain) MLPAPKNLVVSRVTEDSARLSWTAPDAAFDSFFIGYLEPQPPGEAIDLYVPGSERSYDLTGLKPGTEYNVTIQGVKGGFPSEPLWADFTT
– | – | – | – | – | 14.1 | 23 | 9.8 | CD71-binding FN3 domain of SEQ ID NO: 483 (designed binder, Tencon-based FN3 domain) MLPAPKNLVVSRVTEDSARLSWTAPDAAFDSFFIGYLEPQPPGEAITLVVPGSERSYDLTGLKPGTEYNVTIQGVKGGFPSDPLVASFTT
– | – | – | – | – | 2.2 | 10.6 | 8.4 | CD71-binding FN3 domain of SEQ ID NO: 516 (designed binder, Tencon-based FN3 domain) MLPAPKNLVVSRVTEDSARLSWTAPDAAFDSFFIGYLEPQPPGEAISLWVPGSERSYDLTGLKPGTEYNVTIQGVKGGFPSSPLVAYFTT
– | – | – | – | – | 4.3 | 34.9 | 12.6 | CD71-binding FN3 domain of SEQ ID NO: 473 (designed binder, Tencon-based FN3 domain) MLPAPKNLVVSRVTEDSARLSWTAPDAAFDSFFIGYLEPQPPGEAIDLWVPGSERSYDLTGLKPGTEYNVTIQGVKGGFPSLPLSASFTT
– | – | – | – | – | 5.5 | 14.2 | 1.5 | CD71-binding FN3 domain of SEQ ID NO: 508 (designed binder, Tencon-based FN3 domain) MLPAPKNLVVSRVTEDSARLSWTAPDAAFDSFFIGYLEPQPPGEAITLSVPGSERSYDLTGLKPGTEYNVTIQGVKGGFPSEPLIAIFTT
– | – | – | – | – | 2.3 | 2.7 | 7 | CD71-binding FN3 domain of SEQ ID NO: 529 (designed binder, Tencon-based FN3 domain) MLPAPKNLVVSRVTEDSARLSWTAPDAAFDSFFIGYLEPQPPGEAIDLYVPGSERSYDLTGLKPGTEYNVTIQGVKGGFPSLPLQAHFTT
– | – | – | – | – | 0.4 | 0.6 | 0.6 | CD71-binding FN3 domain of SEQ ID NO: 478 (designed binder, Tencon-based FN3 domain) MLPAPKNLVVSRVTEDSARLSWTAPDAAFDSFFIGYLEPQPPGEAIHLYVPGSERSYDLTGLKPGTEYNVTIQGVKGGFPSVPLIAKFTT
